Experimental data as given in patent US20110195900A1, “PEPTIDIC PTH RECEPTOR AGONISTS” (FERRING B.V., priority 2008, published 2011).
Starred links: 1 amine or outer side, 2 acyl side, 3 side chain; linkers in the order of their positions; H or OH if unused. Non-standard residues stand in square brackets, D forms with d. No end group written: not given here. hSer(OMe) = COCC[C@H](N[*:1])C(=O)[*:2]; 1Nal = N[C@@H](Cc1cccc2ccccc12)C(=O)O; 2Nal = N[C@@H](Cc1ccc2ccccc2c1)C(=O)O; β3hI = CC[C@H](C)[C@H](N)CC(=O)O; β3hE = N[C@@H](CCC(=O)O)CC(=O)O; Nle = CCCC[C@H](N)C(=O)O; β3hA = C[C@H](N)CC(=O)O; Aib = CC(C)(N)C(=O)O; βAla = NCCC(=O)O

B1: [Nle^8,18, β-hGlu^19, 1-Nal^23, Leu^27] hPTH (1-34)-NH2 (peptide)
peptide: SVSEIQL[Nle]HNLGKHLNS[Nle][β3hE]RVE[1Nal]LRKLLQDVHNF-NH2
modifications: N-terminus assumed
SMILES: CCCC[C@H](NC(=O)[C@H](CO)NC(=O)[C@H](CC(N)=O)NC(=O)[C@H](CC(C)C)NC(=O)[C@H](Cc1c[nH]cn1)NC(=O)[C@H](CCCCN)NC(=O)CNC(=O)[C@H](CC(C)C)NC(=O)[C@H](CC(N)=O)NC(=O)[C@H](Cc1c[nH]cn1)NC(=O)[C@H](CCCC)NC(=O)[C@H](CC(C)C)NC(=O)[C@H](CCC(N)=O)NC(=O)[C@@H](NC(=O)[C@H](CCC(=O)O)NC(=O)[C@H](CO)NC(=O)[C@@H](NC(=O)[C@@H](N)CO)C(C)C)[C@@H](C)CC)C(=O)N[C@@H](CCC(=O)O)CC(=O)N[C@@H](CCCNC(=N)N)C(=O)N[C@H](C(=O)N[C@@H](CCC(=O)O)C(=O)N[C@@H](Cc1cccc2ccccc12)C(=O)N[C@@H](CC(C)C)C(=O)N[C@@H](CCCNC(=N)N)C(=O)N[C@@H](CCCCN)C(=O)N[C@@H](CC(C)C)C(=O)N[C@@H](CC(C)C)C(=O)N[C@@H](CCC(N)=O)C(=O)N[C@@H](CC(=O)O)C(=O)N[C@H](C(=O)N[C@@H](Cc1c[nH]cn1)C(=O)N[C@@H](CC(N)=O)C(=O)N[C@@H](Cc1ccccc1)C(N)=O)C(C)C)C(C)C
B2: [Nle^8, β-hIle^18, 1-Nal^23] hPTH (1-34)-OH (peptide)
peptide: SVSEIQL[Nle]HNLGKHLNS[β3hI]ERVE[1Nal]LRKKLQDVHNF-OH
modifications: N-terminus assumed
SMILES: CCCC[C@H](NC(=O)[C@H](CC(C)C)NC(=O)[C@H](CCC(N)=O)NC(=O)[C@@H](NC(=O)[C@H](CCC(=O)O)NC(=O)[C@H](CO)NC(=O)[C@@H](NC(=O)[C@@H](N)CO)C(C)C)[C@@H](C)CC)C(=O)N[C@@H](Cc1c[nH]cn1)C(=O)N[C@@H](CC(N)=O)C(=O)N[C@@H](CC(C)C)C(=O)NCC(=O)N[C@@H](CCCCN)C(=O)N[C@@H](Cc1c[nH]cn1)C(=O)N[C@@H](CC(C)C)C(=O)N[C@@H](CC(N)=O)C(=O)N[C@@H](CO)C(=O)N[C@H](CC(=O)N[C@@H](CCC(=O)O)C(=O)N[C@@H](CCCNC(=N)N)C(=O)N[C@H](C(=O)N[C@@H](CCC(=O)O)C(=O)N[C@@H](Cc1cccc2ccccc12)C(=O)N[C@@H](CC(C)C)C(=O)N[C@@H](CCCNC(=N)N)C(=O)N[C@@H](CCCCN)C(=O)N[C@@H](CCCCN)C(=O)N[C@@H](CC(C)C)C(=O)N[C@@H](CCC(N)=O)C(=O)N[C@@H](CC(=O)O)C(=O)N[C@H](C(=O)N[C@@H](Cc1c[nH]cn1)C(=O)N[C@@H](CC(N)=O)C(=O)N[C@@H](Cc1ccccc1)C(=O)O)C(C)C)C(C)C)[C@@H](C)CC
B3: [Nle^8,18, β-Ala^19, 1-Nal^23, Leu^27] hPTH-(1-34)-NH2 (peptide)
peptide: SVSEIQL[Nle]HNLGKHLNS[Nle][βAla]RVE[1Nal]LRKLLQDVHNF-NH2
modifications: N-terminus assumed
SMILES: CCCC[C@H](NC(=O)[C@H](CO)NC(=O)[C@H](CC(N)=O)NC(=O)[C@H](CC(C)C)NC(=O)[C@H](Cc1c[nH]cn1)NC(=O)[C@H](CCCCN)NC(=O)CNC(=O)[C@H](CC(C)C)NC(=O)[C@H](CC(N)=O)NC(=O)[C@H](Cc1c[nH]cn1)NC(=O)[C@H](CCCC)NC(=O)[C@H](CC(C)C)NC(=O)[C@H](CCC(N)=O)NC(=O)[C@@H](NC(=O)[C@H](CCC(=O)O)NC(=O)[C@H](CO)NC(=O)[C@@H](NC(=O)[C@@H](N)CO)C(C)C)[C@@H](C)CC)C(=O)NCCC(=O)N[C@@H](CCCNC(=N)N)C(=O)N[C@H](C(=O)N[C@@H](CCC(=O)O)C(=O)N[C@@H](Cc1cccc2ccccc12)C(=O)N[C@@H](CC(C)C)C(=O)N[C@@H](CCCNC(=N)N)C(=O)N[C@@H](CCCCN)C(=O)N[C@@H](CC(C)C)C(=O)N[C@@H](CC(C)C)C(=O)N[C@@H](CCC(N)=O)C(=O)N[C@@H](CC(=O)O)C(=O)N[C@H](C(=O)N[C@@H](Cc1c[nH]cn1)C(=O)N[C@@H](CC(N)=O)C(=O)N[C@@H](Cc1ccccc1)C(N)=O)C(C)C)C(C)C
B4: [Ala^1, Nle^8,18, β-Ala^17, 2-Nal^23] hPTH (1-34)-NH2 (peptide)
peptide: AVSEIQL[Nle]HNLGKHLN[βAla][Nle]ERVE[2Nal]LRKKLQDVHNF-NH2
modifications: N-terminus assumed
SMILES: CCCC[C@H](NC(=O)CCNC(=O)[C@H](CC(N)=O)NC(=O)[C@H](CC(C)C)NC(=O)[C@H](Cc1c[nH]cn1)NC(=O)[C@H](CCCCN)NC(=O)CNC(=O)[C@H](CC(C)C)NC(=O)[C@H](CC(N)=O)NC(=O)[C@H](Cc1c[nH]cn1)NC(=O)[C@H](CCCC)NC(=O)[C@H](CC(C)C)NC(=O)[C@H](CCC(N)=O)NC(=O)[C@@H](NC(=O)[C@H](CCC(=O)O)NC(=O)[C@H](CO)NC(=O)[C@@H](NC(=O)[C@H](C)N)C(C)C)[C@@H](C)CC)C(=O)N[C@@H](CCC(=O)O)C(=O)N[C@@H](CCCNC(=N)N)C(=O)N[C@H](C(=O)N[C@@H](CCC(=O)O)C(=O)N[C@@H](Cc1ccc2ccccc2c1)C(=O)N[C@@H](CC(C)C)C(=O)N[C@@H](CCCNC(=N)N)C(=O)N[C@@H](CCCCN)C(=O)N[C@@H](CCCCN)C(=O)N[C@@H](CC(C)C)C(=O)N[C@@H](CCC(N)=O)C(=O)N[C@@H](CC(=O)O)C(=O)N[C@H](C(=O)N[C@@H](Cc1c[nH]cn1)C(=O)N[C@@H](CC(N)=O)C(=O)N[C@@H](Cc1ccccc1)C(N)=O)C(C)C)C(C)C
B5: [Aib^1, Nle^8,18, β-Ala^17, 2-Nal^23] hPTH (1-34)-NH2 (peptide)
peptide: [Aib]VSEIQL[Nle]HNLGKHLN[βAla][Nle]ERVE[2Nal]LRKKLQDVHNF-NH2
modifications: N-terminus assumed
SMILES: CCCC[C@H](NC(=O)CCNC(=O)[C@H](CC(N)=O)NC(=O)[C@H](CC(C)C)NC(=O)[C@H](Cc1c[nH]cn1)NC(=O)[C@H](CCCCN)NC(=O)CNC(=O)[C@H](CC(C)C)NC(=O)[C@H](CC(N)=O)NC(=O)[C@H](Cc1c[nH]cn1)NC(=O)[C@H](CCCC)NC(=O)[C@H](CC(C)C)NC(=O)[C@H](CCC(N)=O)NC(=O)[C@@H](NC(=O)[C@H](CCC(=O)O)NC(=O)[C@H](CO)NC(=O)[C@@H](NC(=O)C(C)(C)N)C(C)C)[C@@H](C)CC)C(=O)N[C@@H](CCC(=O)O)C(=O)N[C@@H](CCCNC(=N)N)C(=O)N[C@H](C(=O)N[C@@H](CCC(=O)O)C(=O)N[C@@H](Cc1ccc2ccccc2c1)C(=O)N[C@@H](CC(C)C)C(=O)N[C@@H](CCCNC(=N)N)C(=O)N[C@@H](CCCCN)C(=O)N[C@@H](CCCCN)C(=O)N[C@@H](CC(C)C)C(=O)N[C@@H](CCC(N)=O)C(=O)N[C@@H](CC(=O)O)C(=O)N[C@H](C(=O)N[C@@H](Cc1c[nH]cn1)C(=O)N[C@@H](CC(N)=O)C(=O)N[C@@H](Cc1ccccc1)C(N)=O)C(C)C)C(C)C

Assays:
[1] = target: human parathyroid hormone receptor 1 (human, UniProt Q03431); test: cell-based or functional assay
[2] = target: human parathyroid hormone receptor 2 (human, UniProt P49190); test: cell-based or functional assay

| Binder | hPTHR-1 EC50 (nM), CRE-luciferase reporter gene assay [1] [nM] | hPTHR-2 EC50 (nM), luciferase reporter gene assay [2] [nM] |
| --- | --- | --- |
| SVSEIQL[Nle]HNLGKHLN[βAla][Nle]ERVE[1Nal]LRKLLQDVHNF-NH2 [[Nle^8,18, β-Ala^17, 1-Nal^23, Leu^27] hPTH (1-34)-NH2] | 0.12 | 47 |
| SVSEIQL[Nle]HNLGKHLES[β3hI]ERVE[1Nal]LRKLLQDVHNF-NH2 [[Nle^8, Glu^16, β-hIle^18, 1-Nal^23, Leu^27] hPTH (1-34)-NH2] | 0.16 | 37 |
| SVSEIQL[Nle]HELGKHLNS[β3hI]ERVE[1Nal]LRKLLQDVHNF-NH2 [[Nle^8, Glu^10, β-hIle^18, 1-Nal^23, Leu^27] hPTH (1-34)-NH2] | 0.13 | 3 |
| B1 | 0.32 | 29 |
| B2 | 0.21 | 26 |
| SVSEIQL[Nle]HNLGKHLNS[β3hA]ERVE[1Nal]LRKLLQDVHNF-NH2 [[Nle^8, β-hAla^18, 1-Nal^23, Leu^27] hPTH (1-34)-NH2] | 0.22 | 61 |
| SVSEIQL[Nle]HNLGKHLSS[β3hI]ERVE[1Nal]LRKLLQDVHNF-NH2 [[Nle^8, Ser^16, β-hIle^18, 1-Nal^23, Leu^27] hPTH (1-34)-NH2] | 0.19 | 20 |
| SVSEIQL[hSer(OMe)]HNLGKHLN[βAla][hSer(OMe)]ERVE[1Nal]LRKLLQDVHNF-NH2 [[hSer(OMe)^8,18, β-Ala^17, 1-Nal^23, Leu^27] hPTH(1-34)-NH2] | 0.88 | > 270 |
| [Aib]VSEIQL[Nle]HNLGKHLN[βAla][Nle]ERVE[1Nal]LRKLLQDVHNF-NH2 [[Aib^1, Nle^8,18, β-Ala^17, 1-Nal^23, Leu^27] hPTH (1-34)-NH2] | 0.06 | 31 |
| SVSEIQL[Nle]HNLGKHLNS[β3hI]ERVE[1Nal]LRKLLQDVHNF-NH2 [[Nle^8, β-hIle^18, 1-Nal^23, Leu^27] hPTH (1-34)-NH2] | 0.14 | 32 |
| SVSEIQL[Nle]HNLGKHLNS[β3hI]ERVE[1Nal]LRKLLQDVHNF-OH [[Nle^8, β-hIle^18, 1-Nal^23, Leu^27] hPTH (1-34)-OH] | 0.14 | 23 |
| B3 | 0.26 | 18 |
| SVSEIQL[Nle]HSLGKHLNS[β3hI]ERVE[1Nal]LRKLLQDVHNF-NH2 [[Nle^8, Ser^10, β-hIle^18, 1-Nal^23, Leu^27] hPTH (1-34)-NH2] | 0.18 | 17 |
| SVSEIQL[Nle]HNLGKHLN[βAla][hSer(OMe)]ERVE[1Nal]LRKLLQDVHNF-NH2 [[Nle^8, β-Ala^17, hSer(OMe)^18, 1-Nal^23, Leu^27] hPTH (1-34)-NH2] | 0.13 | 93 |
| AVSEIQL[Nle]HNLGKHLN[βAla][Nle]ERVE[1Nal]LRKLLQDVHNF-NH2 [[Ala^1, Nle^8,18, β-Ala^17, 1-Nal^23, Leu^27] hPTH (1-34)-NH2] | 0.2 | 89 |
| B4 | 0.22 | 95 |
| B5 | 0.22 | 46 |
| SVSEIQL[Nle]HNLGKHLNS[β3hI]ERVE[1Nal]LRKLLQDV-OH [[Nle^8, β-hIle^18, 1-Nal^23, Leu^27] hPTH (1-31)-OH] | 0.09 | 76 |
